Reference: paper PMC5508476 (Translational Oncology, 2017)

Biological target: FOLR1-His (Homo sapiens, UniProt P15328)
Assay: SPR

FOLR1-His, sequence (P15328 25-233): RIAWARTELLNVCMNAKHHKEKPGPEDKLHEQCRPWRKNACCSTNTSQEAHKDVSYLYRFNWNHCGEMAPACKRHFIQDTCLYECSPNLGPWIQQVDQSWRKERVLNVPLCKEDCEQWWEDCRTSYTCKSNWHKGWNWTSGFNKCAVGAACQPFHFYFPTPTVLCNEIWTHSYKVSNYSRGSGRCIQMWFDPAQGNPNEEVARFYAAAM

B1: KM8188 (antibody, V domains shown)
VH: EVQLVESGGGVVQPGRSLRLSCSASGFTFSGYGLSWVRQAPGKGLEWVAMISSGGSYTYYADSVKGRFAISRDNAKNTLFLQMDSLRPEDTGVYFCARHGDDPAWFAYWGQGTPVTVSS
VL: DIQLTQSPSSLSASVGDRVTITCSVSSSISSNNLHWYQQKPGKAPKPWIYGTSNLASGVPSRFSGSGSGTDYTFTISSLQPEDIATYYCQQWSSYPYMYTFGQGTKVEIK
  Kd: 31.4 nM
